According to article PMC8442866, “Ultrafast pore-loop dynamics in a AAA+ machine point to a Brownian-ratchet mechanism for protein translocation” (Science Advances, 2021):

Legend:
[1] = system: T1, Nc1ncnc2c1ncn2[C@@H]1O[C@H](COP(=O)(O)OP(=O)(O)OP(=O)(O)O)[C@@H](O)[C@H]1O; test: coupled pyruvate kinase/lactate dehydrogenase NADH ATPase assay, Hill fit; format: biochemical, Thermus thermophilus; settings: 10 mM MgCl2, 25 mM Hepes pH 7.8, 25 mM KCl, 0.01% Tween 20, 25 °C, ATP 50 μM to 3 mM, 1 μM ClpB
T1 construct: N-terminal domain removed, starts at residue 141; His6 tag with TEV site (pET28b); expressed in E. coli BL21 (DE3) pLysS; homohexamer
From the text: coupled pyruvate kinase/lactate dehydrogenase NADH ATPase assay, Hill fit on ΔN-ClpB (ClpB) | plotted as a function of ATP concentration and fitted to the Hill equation

[2] = biological target: ClpB hexamer assembled with a single double-labeled S359C-Y646C protomer (PL3 variant) (Thermus thermophilus) (UniProt Q9RA63)
ClpB hexamer assembled with a single double-labeled S359C-Y646C protomer (PL3 variant) (Thermus thermophilus), sequence (Q9RA63 141-854 S359C/Y646C, chain 1 of 2): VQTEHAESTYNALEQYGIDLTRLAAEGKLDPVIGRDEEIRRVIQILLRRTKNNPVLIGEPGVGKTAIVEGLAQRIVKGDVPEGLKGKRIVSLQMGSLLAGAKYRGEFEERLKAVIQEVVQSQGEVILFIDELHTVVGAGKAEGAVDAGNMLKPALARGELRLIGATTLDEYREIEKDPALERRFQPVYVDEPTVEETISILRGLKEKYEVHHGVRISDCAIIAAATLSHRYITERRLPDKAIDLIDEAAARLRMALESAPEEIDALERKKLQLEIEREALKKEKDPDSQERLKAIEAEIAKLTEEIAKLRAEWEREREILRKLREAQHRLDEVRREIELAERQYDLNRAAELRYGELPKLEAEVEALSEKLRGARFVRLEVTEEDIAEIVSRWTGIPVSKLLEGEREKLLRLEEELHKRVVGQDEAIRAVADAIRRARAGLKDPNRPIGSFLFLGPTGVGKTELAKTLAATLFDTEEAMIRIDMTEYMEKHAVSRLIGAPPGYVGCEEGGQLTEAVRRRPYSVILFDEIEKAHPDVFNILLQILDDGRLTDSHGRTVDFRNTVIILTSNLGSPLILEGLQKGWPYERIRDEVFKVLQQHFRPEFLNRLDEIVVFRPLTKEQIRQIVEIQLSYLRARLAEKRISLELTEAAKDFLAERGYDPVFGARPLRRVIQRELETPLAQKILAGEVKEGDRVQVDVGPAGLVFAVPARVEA
ClpB hexamer assembled with a single double-labeled S359C-Y646C protomer (PL3 variant) (Thermus thermophilus), sequence (Q9RA63 141-854, stated change not applied, chain 2 of 2): as the sequence (Q9RA63 141-854 S359C/Y646C, chain 1 of 2) above, with C219S, C506Y counted along it

[3] = biological target: ClpB hexamer assembled with a single double-labeled S236C-S359C protomer (PL1 variant) (Thermus thermophilus) (UniProt Q9RA63)
ClpB hexamer assembled with a single double-labeled S236C-S359C protomer (PL1 variant) (Thermus thermophilus), sequence (Q9RA63 141-854 S236C/S359C, chain 1 of 2): as the sequence (Q9RA63 141-854 S359C/Y646C, chain 1 of 2) above, with S96C, C506Y counted along it
ClpB hexamer assembled with a single double-labeled S236C-S359C protomer (PL1 variant) (Thermus thermophilus), sequence (Q9RA63 141-854, stated change not applied, chain 2 of 2): as the sequence (Q9RA63 141-854 S359C/Y646C, chain 1 of 2) above, with C219S, C506Y counted along it

[4] = biological target: ClpB hexamer assembled with a single double-labeled S236C-S359C protomer (PL1 variant) (Thermus thermophilus) (UniProt Q9RA63); remark: listed apart in the source

ΔN-ClpB (ClpB) (Thermus thermophilus HB8), sequence (chain, as listed by the source mutant): as the sequence (Q9RA63 141-854 S359C/Y646C, chain 1 of 2) above, with C219S, C506Y counted along it

Row | smFRET: substrate-response factor R3 (ratio of K12^3 with and without 20 μM κ-casein), with ADP [2] | smFRET: substrate-response factor R3 (ratio of K12^3 with and without 20 μM κ-casein), with ATP [2] | smFRET: substrate-response factor R3 (ratio of K12^3 with and without 20 μM κ-casein), with ATPγS [2] | smFRET with two-state H2MM analysis, 2 mM ATP: population ratio K12^1 of the two PL1 states without and with 20 μM κ-casein [3] | smFRET: substrate-response factor R1 (ratio of K12^1 with and without 20 μM κ-casein), with ATP [4] | Substance | K0.5 [1] [µM]
1 |  |  |  |  |  | ΔN-ClpB (ClpB) (Thermus thermophilus HB8) | 300 ± 20
2 | 1.71 | 2.28 | 1.34 | 0.81 | 1.68 | κ-casein (from UniProt P02668 22-190) (natural protein) | 
